Laboratory results published in PMC11480477, “STIC2 selectively binds ribosome-nascent chain complexes in the cotranslational sorting of Arabidopsis thylakoid proteins” (The EMBO Journal, 2024).

B5: His-STIC2 (mature STIC2, aa 49–182) (natural protein, A. thaliana, UniProt O82230 49-182, looked up)
chain: VNGLFGGGNKDNNSEDGQSKAGIFGNMQNMYETVKKAQMVVQVEAVRVQKELAAAEFDGYCAGELVKVTLSGNQQPIRTDITEAAMELGSEKLSQLVTEAYKDAHAKSVVAMKERMSDLAQSLGMPPGLSEGMK
notes: STIC2 of A. thaliana, mature protein aa 49–182 (transit peptide predicted with TargetP), in pET-Duet1; The N-terminal place of the tag is read from the printed name His-STIC2; also called recombinant mature His-STIC2; suppressor of tic40 protein 2; source: E. coli Rosetta2 (DE3) or BL21 (DE3), purified (HisTrap HP, native conditions); not shown: His tag, N-terminal, kept

Experiments:
Settings in all cases: both partners purified
[1] = biological target: B5; experiment: peptide or protein array; pepspot membranes with 15mer peptides of Alb3 (aa 155–208, 282–462) and Alb4 (aa 139–192, 266–499); His-STIC2 5 µg/ml for 3 h at room temperature, TBST washes, detection with anti-His HRP conjugate
[2] = biological target: B5; experiment: ITC; His-STIC2 titrated (1.5 mM into 0.15 mM Alb3C-His or Alb3CΔIII-His; 1 mM into 0.1 mM Alb4C-His or Alb4CΔIII-His); 20 mM HEPES, 150 mM NaCl, pH 8.0, 25 °C; one-site binding model; two to five independent experiments
[3] = biological target: T1, GST-STIC2 E131G (A. thaliana, UniProt O82230 49-182, E131G); experiment: pull-down; 20 µg GST-STIC2 variants with 20 µg Alb3C-His in PBS with 160 mM NaCl, 120 µl, room temperature; glutathione sepharose; eluates by immunoblot, coelution quantified with ImageJ
T1 construct: STIC2 of A. thaliana, mature protein aa 49–182, in pGEX4T3; The results speak only of E131; source: E. coli Rosetta2 (DE3) or BL21 (DE3), purified (glutathione sepharose); not shown: GST, N-terminal, kept
T1 sequence (looked up): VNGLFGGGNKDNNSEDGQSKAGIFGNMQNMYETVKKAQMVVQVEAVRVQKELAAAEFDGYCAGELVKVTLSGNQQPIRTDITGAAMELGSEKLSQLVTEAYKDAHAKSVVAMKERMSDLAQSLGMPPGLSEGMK

[4] = biological target: T2, GST-STIC2 E112A K115A (A. thaliana, UniProt O82230 49-182, E112A | K115A); experiment: as above
T2 construct: STIC2 of A. thaliana, mature protein aa 49–182, in pGEX4T3; also called STIC2 E112A K115A double mutant; source: E. coli Rosetta2 (DE3) or BL21 (DE3), purified (glutathione sepharose); not shown: GST, N-terminal, kept
T2 sequence (looked up): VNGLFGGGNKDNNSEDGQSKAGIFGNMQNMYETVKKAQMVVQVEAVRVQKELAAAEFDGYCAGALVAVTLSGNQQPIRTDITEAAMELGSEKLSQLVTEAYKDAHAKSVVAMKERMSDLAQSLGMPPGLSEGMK

[5] = biological target: T3, GST-STIC2 E112A (A. thaliana, UniProt O82230 49-182, E112A); experiment: as above
T3 construct: STIC2 of A. thaliana, mature protein aa 49–182, in pGEX4T3; source: E. coli Rosetta2 (DE3) or BL21 (DE3), purified (glutathione sepharose); not shown: GST, N-terminal, kept
T3 sequence (looked up): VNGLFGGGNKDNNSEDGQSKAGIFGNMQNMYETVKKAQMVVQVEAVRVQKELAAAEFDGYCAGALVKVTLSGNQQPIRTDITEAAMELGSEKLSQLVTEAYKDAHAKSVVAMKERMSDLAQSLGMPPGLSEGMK

[6] = biological target: T4, Alb4C-His R399G (UniProt Q9FYL3 334-499, R399G); experiment: pull-down; 20 µg GST-STIC2 variants with 20 µg Alb4C-His variants in PBS, 120 µl, room temperature; glutathione sepharose; eluates by immunoblot, coelution quantified with ImageJ
T4 construct: Alb4, C-terminal region aa 334–499, in pET29b; source: E. coli Rosetta2 (DE3) or BL21 (DE3), purified (HisTrap HP); not shown: His tag, C-terminal, kept
T4 sequence (looked up): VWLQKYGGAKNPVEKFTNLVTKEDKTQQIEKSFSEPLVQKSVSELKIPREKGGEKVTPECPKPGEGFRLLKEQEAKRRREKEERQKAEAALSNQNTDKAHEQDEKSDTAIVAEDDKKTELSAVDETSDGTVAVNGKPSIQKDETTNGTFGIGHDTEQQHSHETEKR

[7] = biological target: T5, Alb4C-His R410G (UniProt Q9FYL3 334-499, R410G); experiment: as above
T5 construct: Alb4, C-terminal region aa 334–499, in pET29b; source: E. coli Rosetta2 (DE3) or BL21 (DE3), purified (HisTrap HP); not shown: His tag, C-terminal, kept
T5 sequence (looked up): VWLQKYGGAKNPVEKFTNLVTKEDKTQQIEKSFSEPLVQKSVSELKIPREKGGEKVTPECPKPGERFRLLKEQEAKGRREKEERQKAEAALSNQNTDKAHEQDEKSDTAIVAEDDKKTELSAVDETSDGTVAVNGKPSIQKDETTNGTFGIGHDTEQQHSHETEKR

[8] = biological target: T6, Alb4C-His F400G (UniProt Q9FYL3 334-499, F400G); experiment: as above
T6 construct: Alb4, C-terminal region aa 334–499, in pET29b; source: E. coli Rosetta2 (DE3) or BL21 (DE3), purified (HisTrap HP); not shown: His tag, C-terminal, kept
T6 sequence (looked up): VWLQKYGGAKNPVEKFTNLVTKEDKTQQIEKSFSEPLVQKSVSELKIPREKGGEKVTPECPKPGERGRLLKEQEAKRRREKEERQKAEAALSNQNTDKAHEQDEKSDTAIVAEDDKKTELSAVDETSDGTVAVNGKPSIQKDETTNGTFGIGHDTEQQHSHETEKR

[9] = biological target: T7, Alb4C-His E407G (UniProt Q9FYL3 334-499, E407G); experiment: as above
T7 construct: Alb4, C-terminal region aa 334–499, in pET29b; source: E. coli Rosetta2 (DE3) or BL21 (DE3), purified (HisTrap HP); not shown: His tag, C-terminal, kept
T7 sequence (looked up): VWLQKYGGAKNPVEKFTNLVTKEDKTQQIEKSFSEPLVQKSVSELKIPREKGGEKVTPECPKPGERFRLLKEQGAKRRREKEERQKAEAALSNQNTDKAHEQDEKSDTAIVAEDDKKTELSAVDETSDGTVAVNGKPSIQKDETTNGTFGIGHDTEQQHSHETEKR

[10] = biological target: T8, Alb4C-His (aa 334–499) (UniProt Q9FYL3 334-499); experiment: ITC; His-STIC2 titrated (1.5 mM into 0.15 mM Alb3C-His or Alb3CΔIII-His; 1 mM into 0.1 mM Alb4C-His or Alb4CΔIII-His); 20 mM HEPES, 150 mM NaCl, pH 8.0, 25 °C; one-site binding model; two to five independent experiments
T8 construct: Alb4, stromal C-terminal region aa 334–499, in pET29b; also called C-terminal region of Alb4; source: E. coli Rosetta2 (DE3) or BL21 (DE3), purified (HisTrap HP); not shown: His tag, C-terminal, kept
T8 sequence (looked up): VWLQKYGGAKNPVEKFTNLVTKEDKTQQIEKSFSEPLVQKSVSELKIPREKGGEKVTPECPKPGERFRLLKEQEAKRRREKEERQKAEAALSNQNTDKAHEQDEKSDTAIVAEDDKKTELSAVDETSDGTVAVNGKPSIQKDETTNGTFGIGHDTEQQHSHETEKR

[11] = biological target: T8, Alb4C-His (aa 334–499); experiment: pull-down; 20 µg GST-STIC2 variants with 20 µg Alb4C-His variants in PBS, 120 µl, room temperature; glutathione sepharose; eluates by immunoblot, coelution quantified with ImageJ

B1: Alb3 peptide aa 386–400 (15mer pepspot) (peptide, UniProt Q8LBP4 386-400, looked up)
peptide: GERFRQLKEQEKRSK
notes: largely Motif III; source: synthetic peptide, spot on a membrane (JPT Peptide Technologies)
B1: binds [1].

B2: Alb4 peptide aa 394–408 (15mer pepspot) (peptide, UniProt Q9FYL3 394-408, looked up)
peptide: PKPGERFRLLKEQEA
notes: as for B1
B2: binds [1].

B3: Alb3C-His (aa 350–462) (domain or fragment, UniProt Q8LBP4 350-462, looked up)
chain: VYLRKLGGAKPNMDENASKIISAGRAKRSIAQPDDAGERFRQLKEQEKRSKKNKAVAKDTVELVEESQSESEEGSDDEEEEAREGALASSTTSKPLPEVGQRRSKRSKRKRTV
notes: Alb3, stromal C-terminal region aa 350–462, in pET29b; also called C-terminal region of Alb3; source: E. coli Rosetta2 (DE3) or BL21 (DE3), purified (HisTrap HP); not shown: His tag, C-terminal, kept
For B3, the Kd [2] was 150 µM, the “percent reduction of binding against GST-STIC2” value (“percent reduction of binding” below) [3] was roughly 80% and the “percent reduction of binding” value [4] was roughly 80%. For the same binder, the “percent reduction of binding” value [5] was roughly 15%.

B4: GST-STIC2 (natural protein, A. thaliana, UniProt O82230 49-182, looked up)
chain: VNGLFGGGNKDNNSEDGQSKAGIFGNMQNMYETVKKAQMVVQVEAVRVQKELAAAEFDGYCAGELVKVTLSGNQQPIRTDITEAAMELGSEKLSQLVTEAYKDAHAKSVVAMKERMSDLAQSLGMPPGLSEGMK
notes: STIC2 of A. thaliana, mature protein aa 49–182, in pGEX4T3; also called pGEX4T3-GST-STIC2; source: E. coli Rosetta2 (DE3) or BL21 (DE3), purified (glutathione sepharose); not shown: GST, N-terminal, kept
B4: binds [6]; binds [7]; binds [8]. B4: binds [9].

With B5 the Kd [10] was 17 µM.

B6: GST-STIC2 K115A (natural protein, A. thaliana, UniProt O82230 49-182, looked up)
chain: VNGLFGGGNKDNNSEDGQSKAGIFGNMQNMYETVKKAQMVVQVEAVRVQKELAAAEFDGYCAGELVAVTLSGNQQPIRTDITEAAMELGSEKLSQLVTEAYKDAHAKSVVAMKERMSDLAQSLGMPPGLSEGMK
notes: STIC2 of A. thaliana, mature protein aa 49–182, in pGEX4T3; source: E. coli Rosetta2 (DE3) or BL21 (DE3), purified (glutathione sepharose); not shown: GST, N-terminal, kept
B6: binds [11].
